The nature of the data set: amyloid nucleation score (Sup35N fusion, yeast selection) (log enrichment); library NNK1; higher = more nucleation; inactive = no reads after selection. The essentials:
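The nucleation score is the log enrichment of output over input reads, calculated with DiMSum and centred on the mode score of non-aggregating sequences. Sequences with under 100 input reads were excluded. Reads came from Illumina sequencing of plasmid inserts from psi-negative yeast expressing Sup35N fused to peptides of 20 random codons, induced 24 hours with 100 μM copper sulfate and grown 7 days at 30°C without adenine and uracil.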

± gives the uncertainty stated by the source.

The substance TTIYRY showed an amyloid nucleation score of 0.234 ± 0.9.

Substance SPSFYFH gave an amyloid nucleation score of -0.019 ± 0.98.

As to ICTFVMKLTAFVIIVLVFFH, the amyloid nucleation score is -0.125 ± 0.26.

In turn, SNPIRTNV showed an amyloid nucleation score of -0.533 ± 0.38.

In turn, KSKIQDLCCPSRPVVGMVCL yielded an amyloid nucleation score of 0.239 ± 0.43.

In turn, LCINLVYRKISPALRF yielded an amyloid nucleation score of -0.859 ± 0.75.

In turn, AAAFSSGGKLFHAGCWRRMM showed an amyloid nucleation score of -0.681 ± 1.6.

IYVYWSDISV returned an amyloid nucleation score of 0.907 ± 0.42.

Take LPWLPLKSRYALTAKFTCEP: the amyloid nucleation score amounted to 0.261 ± 1.2.

NADCVTMVYSKLVWLPVEDT: the amyloid nucleation score was 0.458 ± 0.57.

For the substance RYRWTSLVFLGMTQH, the amyloid nucleation score was 0.75 ± 0.38.

For SGRPLEYTDNGEQDRMWWQS, the amyloid nucleation score was -0.044 ± 0.88.

PHMMELSVDTKGNVLKVGSH showed an amyloid nucleation score of 0.055 ± 0.52.

As to FSVWGLRLTRARMQTERVLL, the amyloid nucleation score is 0.86 ± 0.59.

For the substance SDRDVVRVIYNSVGGTVWFG, the amyloid nucleation score stood at 1.07 ± 0.19.

Turning to LDAGH, the amyloid nucleation score is -1.56 ± 1.8.

The substance RIGRKDLLFWVPTCRHVLLL gave an amyloid nucleation score of 0.416 ± 0.28.

Turning to VFWGDKMSLLDLSVTNIMSI, the amyloid nucleation score is 1.49 ± 0.4.

As for LWHAYAKSGYPFGSMVGVHA, the amyloid nucleation score was 0.703 ± 0.4.

In turn, YRVYRRLSV showed an amyloid nucleation score of 0.526 ± 0.45.

Take CGAVHGGGWSAIYLNGYLGW: the amyloid nucleation score worked out at 0.186 ± 0.95.

The substance ALWVNVMQARAIGSGFGRTK had an amyloid nucleation score of -0.415 ± 0.58.

Turning to IHLCYRDYRMHVARLSAETG, the amyloid nucleation score is 0.02 ± 0.53.

The substance GEVSRWRMCGLSLMEGRGLQ had an amyloid nucleation score of 0.733 ± 0.44.

DPCSVGFVPPMVLGSLGGDV had an amyloid nucleation score of -0.248 ± 0.71.

Take FCVSTRRWGRAEYKRMDLLW: the amyloid nucleation score came out at 0.077 ± 1.

RCASHKTQYKRCGGVDEQEA displayed an amyloid nucleation score of 1.96 ± 0.58.

For RVDTL, the amyloid nucleation score is 0.694 ± 1.1.

YKSNKWSPSQKRKG had an amyloid nucleation score of -1.37 ± 2.7.

As for LYHRSSLGMVSVVGDSMSDT, the amyloid nucleation score came to 0.596 ± 1.2.

With VWRTEQ, the amyloid nucleation score was -0.533 ± 0.66.

For the substance TAILLNVFKCSIFWVALK, the amyloid nucleation score was -0.691 ± 0.72.

FGPCMRFDCCNRGST came in with an amyloid nucleation score of 4.72 ± 0.082.

TRKWEYTSKVRVQRGSVYLL registered an amyloid nucleation score of 0.13 ± 0.65.

On to AVGIANFTAPKCWLDNVGP, for which the amyloid nucleation score was 0.085 ± 0.59.

Regarding LSERYVSTGVARDSGNAKVG, the amyloid nucleation score is 3.88 ± 0.11.

For the substance IMWSKENWDGG, the amyloid nucleation score is -0.649 ± 0.44.

On to SMLYFRNFRASLLPWAVDFT, for which the amyloid nucleation score is -0.496 ± 1.7.

On to IYFHLGGCI, for which the amyloid nucleation score is -0.376 ± 0.42.

VCKITDLAARCHSREFWESR yielded an amyloid nucleation score of 0.253 ± 0.25.

The substance TEMDDF returned an amyloid nucleation score of 0.875 ± 0.54.

On to SIVIIG, for which the amyloid nucleation score is -0.155 ± 0.7.

The substance APVVGTNSTTGEYSLTPSSW had an amyloid nucleation score of 0.741 ± 0.41.

In the case of LAKATGHVVCMSRVRRPVGQ, the amyloid nucleation score entry was “inactive”.

WFVNIEGREEWKYHKGCEPK yielded an amyloid nucleation score of 0.758 ± 0.49.

Turning to YMVYILSVCDLRFLWTRSGG, the amyloid nucleation score was -0.053 ± 0.49.

On to EAPYISFVLIG, for which the amyloid nucleation score result is “inactive”.

Consider RPQYLCAAVHEVQRFGHNR, for which the amyloid nucleation score was -0.79 ± 0.51.

IMSKRTWWLRPRGPTACFQW displayed an amyloid nucleation score of 0.208 ± 0.44.

In the case of PMMMKIVKHDIVFSLEFHLI, the amyloid nucleation score result is “inactive”.

In the case of MSKINFFVNMAGL, the amyloid nucleation score came out at 5.19 ± 0.062.

Regarding RSGLCFMCSFEKSVSSR, the amyloid nucleation score is 0.255 ± 0.3.

Turning to VGSNYVCVI, the amyloid nucleation score is -0.545 ± 0.5.

With NRIPHGSRRSRAISKVRDA, the amyloid nucleation score was 0.728 ± 0.97.

The substance IPRYCRRNMADSAIV registered an amyloid nucleation score of 0.923 ± 0.62.

For the substance CRIIPLYRKFLKHLTCHYIQ, the amyloid nucleation score was -0.092 ± 0.25.

Substance CLNTMWRKPVEAREM returned an amyloid nucleation score of 0.189 ± 1.

Take FCYIDMEFSFCLLSAEFISV: the amyloid nucleation score was 0.03 ± 0.53.

Take PAMSVGQRFYGEQHSCGLSA: the amyloid nucleation score is -0.583 ± 0.43.

RARGAIYTVT registered an amyloid nucleation score of -0.894 ± 2.4.

Consider CAKLCKASHSVFIDDRRCVR, for which the amyloid nucleation score was -1.02 ± 2.4.

Substance TDCHALRMWIFAGFWWHNFS displayed an amyloid nucleation score of -1.04 ± 0.84.

For CFFASVHPLCYRGVSGVGVF, the amyloid nucleation score is -1.28 ± 2.1.

For the substance NDEQAVQFNIGETGVSYCFL, the amyloid nucleation score was 0.162 ± 0.77.

HAAYTEVFILLLNDNILPHL: the amyloid nucleation score is -0.393 ± 0.45.

In the case of EFLMIQIVMGAPGCHKGTRR, the amyloid nucleation score is 0.322 ± 0.47.

As for IIMRTMHHAKRLSGLKP, the amyloid nucleation score came out at 0.996 ± 0.44.

For the substance TTALDFRMDAMEVFRRFDEA, the amyloid nucleation score was found to be 0.14 ± 0.39.

For the substance SSSIVLCAVRCSRPSWFGML, the amyloid nucleation score came out at 1.45 ± 0.32.

In the case of DPHYL, the amyloid nucleation score entry is “inactive”.

On to LVQVIVHFGIYIISAKGQGT, for which the amyloid nucleation score worked out at 3.1 ± 0.15.

SSLMPIYRLFLWFVKVYVKP came in with an amyloid nucleation score of 9.39 ± 0.049.

CFSDKS: the amyloid nucleation score is -0.621 ± 0.42.

In turn, SVIAVSLETQVIAWVRYYPK returned an amyloid nucleation score of -0.315 ± 0.55.

The substance SHGSTLLARYCRINGWPATP registered an amyloid nucleation score of -0.167 ± 0.71.

VRFLISHRESVLKSMAGCVV showed an amyloid nucleation score of 0.815 ± 0.93.

CVTLCSNPWDQKRFICIYRH returned an amyloid nucleation score of -0.021 ± 0.55.

The substance SHIHCFFDDTTNTKKLVWPW displayed an amyloid nucleation score of -0.563 ± 0.45.

RESASSNGYVYILCMQRVPR: the amyloid nucleation score stood at 0.102 ± 0.34.

VAFWFVLGWKGSLYYKGLAD: the amyloid nucleation score worked out at 0.334 ± 1.1.

The substance RGSEPAIGLMMVLP came in with an amyloid nucleation score of 0.458 ± 0.41.

CSLSSRNDLGCIMVLLYAWI: the amyloid nucleation score was 0.605 ± 0.33.

Take GIFHANLTMVWRHIEVKEGC: the amyloid nucleation score was 0.696 ± 0.92.

Substance VDNFIYLVNYLHTRNFISRH returned an amyloid nucleation score of -0.287 ± 0.35.

The substance KVEWVSDTRVNLLGTFVLKA displayed an amyloid nucleation score of 1.18 ± 0.43.

MWSGDDCSFNDFCYVCDFCK: the amyloid nucleation score is -0.1 ± 0.32.

With KHYIKRASDGHAFSYVHLSL, the amyloid nucleation score was 0.068 ± 0.38.

SYRSEGAMETLIDGRLSDLS had an amyloid nucleation score of 1.16 ± 0.76.

Take VVTQCLLAAAVHLYCNCHHM: the amyloid nucleation score amounted to 6.972 ± 0.045.

Substance FGFMKKRRDLSY displayed an amyloid nucleation score of 2.96 ± 0.091.

Take FVVRLRLLANLWWYNCCKCS: the amyloid nucleation score came out at 0.748 ± 0.43.

For the substance YFGYRCDYRCNPPLAPLCAN, the amyloid nucleation score came out at 0.515 ± 0.43.

For the substance AYSDVYQLFYLKYMFCNWLL, the amyloid nucleation score stood at 2.89 ± 0.26.

For the substance LLRLLVRAVMFFWAWGSRGA, the amyloid nucleation score entry was “inactive”.

On to SPEFEEAWDGIKFYCKGANP, for which the amyloid nucleation score is -1.09 ± 1.2.

For WFMPTSRSKVVYLPSYRCNE, the amyloid nucleation score amounted to 0.432 ± 0.2.

Substance VQSSFSFYDVVNSPGHRWTW gave an amyloid nucleation score of 0.14 ± 0.45.

IELVNYFHYFRWVGLLDRRC displayed an amyloid nucleation score of -0.077 ± 0.38.

Substance GRATMGRGRCNLFGHKGHGH registered an amyloid nucleation score of 0.046 ± 0.55.

CYLKGYA gave an amyloid nucleation score of 0.853 ± 0.52.

As to TRCINVYHPLCI, the amyloid nucleation score is -0.875 ± 0.36.

Substance LFHRIV had an amyloid nucleation score of -0.353 ± 0.54.

Turning to WCVLTSMEAYWFGLSRN, the amyloid nucleation score was found to be 0.869 ± 0.54.

Substance IKLTPLMLRTTELV gave an amyloid nucleation score of -1.32 ± 0.5.

ATDSWDC had an amyloid nucleation score of 0.278 ± 0.33.

THLLPFAGIGVCDLVRSAMG showed an amyloid nucleation score of 0.668 ± 0.93.

FRLLRSK showed an amyloid nucleation score of 0.644 ± 0.56.

Substance MDKCIVSGVVESIFTGGAVI had an amyloid nucleation score of -0.361 ± 0.75.

Consider AFRVS, for which the amyloid nucleation score was -0.513 ± 0.63.

Regarding LTNGAVGVTFAQNVWPFYAN, the amyloid nucleation score is 3.67 ± 0.074.

For the substance RINMGNYSLKWNMFTKVSLK, the amyloid nucleation score is -0.227 ± 0.35.

With LPRRKLNFIGLKISISIIAV, the amyloid nucleation score result was “inactive”.

On to LSIRYWCYNLRLVQAHCFRV, for which the amyloid nucleation score is -0.657 ± 0.56.

As to MLTQPAEAKEARVSFCSLYM, the amyloid nucleation score stood at 1.01 ± 0.53.

YDQGVPTDVLILIAIEHQLS: the amyloid nucleation score was 5.53 ± 0.077.

In turn, NRHRRVPFRISTALLPVKLQ came in with an amyloid nucleation score of 0.632 ± 0.5.

Consider QYSHDRRFLPGMVHVRLFLE, for which the amyloid nucleation score is 0.662 ± 0.38.

Take TEVWCIQLY: the amyloid nucleation score is 0.787 ± 0.46.

For the substance SQLESFWVYMQLRGMTYTVA, the amyloid nucleation score is -0.081 ± 0.31.

The substance FVKNSKHYRPFLNGSKRM gave an amyloid nucleation score of 0.475 ± 0.83.

With IGAGPRL, the amyloid nucleation score was -0.623 ± 0.27.

The substance GQLSCLSFNVVTGRYKAIAF gave an amyloid nucleation score of 0.629 ± 0.38.

Consider TSYGISLPAHP, for which the amyloid nucleation score worked out at 0.541 ± 0.75.

With FVLGDCCDIFSSYNQIMYIS, the amyloid nucleation score came out at 3.26 ± 0.12.

Consider DLWWGRVRYG, for which the amyloid nucleation score was 2.64 ± 0.097.

Substance CNSVDVVLISATACYSWSTL displayed an amyloid nucleation score of 0.552 ± 0.48.

In turn, NILKNTLAFSVYLISLPLHV registered an amyloid nucleation score of 1.82 ± 0.1.

Take WLWIRFIAVTSSSVEIRANS: the amyloid nucleation score is -0.834 ± 0.54.

As to THYIFLVYLWVYPGTDGWQR, the amyloid nucleation score entry was “inactive”.

In turn, CSLTCVSWHMGSF came in with an amyloid nucleation score of 2.15 ± 0.32.

As for YGRATIWNYKSSMDGPKNGK, the amyloid nucleation score result was “inactive”.

RCNSSSIEWTVCILFDLLFY: the amyloid nucleation score was -0.122 ± 1.

With RFNWFL, the amyloid nucleation score was -0.285 ± 0.86.

Substance WGKLTKQERGWDNDKVNQEC yielded an amyloid nucleation score of 0.094 ± 0.4.

As for FVHPLMYSDS, the amyloid nucleation score was -0.386 ± 0.43.

As to LPSGLRCRTSRMDVAKLAK, the amyloid nucleation score was determined as 0.441 ± 0.47.

As for ALVGMRQITEILVTRDRQWG, the amyloid nucleation score was determined as 0.332 ± 0.27.

Regarding LNGPTVTKECRGAYMVMPGT, the amyloid nucleation score was -0.431 ± 1.1.

Consider IMARCIVFKPG, for which the amyloid nucleation score came out at 0.136 ± 0.75.

For the origin of these results see the supplement of paper PMC12042874.
